System: MS2 coat protein
Experiment: apparent KD of MS2 coat protein; designed switch direction (-1 OFF switch, 1 ON switch): -1; higher = weaker reporter binding
Procedure, shortened: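 Apparent KD, taken as the median over clusters for each design, was obtained by curve-fitting normalised cluster fluorescence. Designed RNA switches had been transcribed on Illumina chips by stalled E. coli RNA polymerase and titrated with SNAP-549-labelled MS2 coat protein, doubling from 0.7 or 1.5 nM to 3 µM.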

[1] = input ligand: microRNA oligo, concentration not stated
[2] = Eterna round: R95, input ligand: FMN 200 uM
[3] = Eterna round: R95, input ligand: microRNA oligo, concentration not stated
[4] = Eterna round: R95, input ligand: none

Sequence | apparent KD of MS2 coat protein [1] | apparent KD of MS2 coat protein (input ligand: FMN 200 uM) | apparent KD of MS2 coat protein (input ligand: none) | apparent KD of MS2 coat protein [2] | apparent KD of MS2 coat protein [3] | apparent KD of MS2 coat protein [4]
GUCCUCAUGACAUGAGGAUCACCCAUGUAUUAUUUGUUAACUGAGGAUAUACUCUUAAUUUUUAUGUAGAAGGCAGAUUCGGUC [JR_ExcNG3_Sub020] (Eterna round: R96, puzzle: Exclusion NG 3) | 24.8 nM | – | – | – | – | –
GAAUGAGAGCAGGAUAUCUUAUCAAUGUACGAAAGAGAAGGGCUCACAUGAGGAUCACCCAUGUGGUCCUAGAU [jl-ex6-4.66 jandersonlee mod] (Eterna round: R97, puzzle: Exclusion 6) | – | 576 nM | 78.8 nM | – | – | –
ACAUGUGUUGUAGGAUAUAGGAUACAUGAGGAUCACCCAUGUGGAUUCAUGUCAAUGGAAACGUCCUAGAAGGACGACAACAUG [Ex NG2 #22] (Eterna round: R96, puzzle: Exclusion NG 2) | 42.7 nM | 59.5 nM | 65 nM | – | – | –
CUCAUGUGAGGAUAUCACCCAAGAGUGAGCAAUCACUAUCAUGAGAAGGCACAUGAGGAUCACCCAUGUUAAAA [Xesoer] (Eterna round: R97, puzzle: Exclusion 4) | – | 11.5 nM | 57.7 nM | – | – | –
GAAAACGUAGGAUAUACGAAAAAAAAGGGUAGAAAAAAAACACAUGAGGAUCACCCAUGUAGAAGGACGAAAAG [salish99_ex2_r3_094] (puzzle: Exclusion 2) | – | – | – | 66.3 nM | 38.9 nM | 55.4 nM
CAGUACUGAGGAUAUACAUGAGGAUCACCCAUGUGAUUUGGUGCACGCGUACGUGUACGUAGAAGGCAGUACUG [JL 3.27 m5] (Eterna round: R97, puzzle: Exclusion 3) | – | 363 nM | 24.2 nM | – | – | –
UUAUUUAGUGUGAGGAUAUGCUGGUCCAUAGAUCAGCAGAAGGCACAUGAGGAUCACCCAUGUAAUAUAUUAAU [Mat - Exclusion 4 - JL Mod - D32] (puzzle: Brourd's mod of Exclusion 4) | – | – | – | – | 25.2 nM | –
GCUUGUGUUGAGGAUAUGCGCCGGCUCGCUGGCGCAGAAGGCGGCACAUGAGGAUCACCCAUGUCAGUUCGCGU [salish99_ex6_r004_010] (Eterna round: R97, puzzle: Exclusion 6) | – | 428 nM | 38 nM | – | – | –
AGCAUGCAGCAGGAUAUCGAUCCGCAGUAUGAUCGAGAAGGGCUGACAUGAGGAUCACCCAUGUGCGUCCUAGG [jl-ex6-4.42 ViennaUCT mod] (Eterna round: R97, puzzle: Exclusion 6) | – | 295 nM | 66.3 nM | – | – | –
AACGUCUAGGUAGGAUAUCCACCAACAGGUGGAAGGAUAUGGAAACAGAAGGUUCGCCAACAGGCGGAGAAGGACCUACGCGUA [pwkr exNG2 2xF7 2xFMN.25] (Eterna round: R96, puzzle: Exclusion NG 2) | 162 nM | 50.4 nM | 387 nM | – | – | –
UCUUGUUGUCCGUGAGAAGACAUGAGGAUCACCCAUGUUAGUUUGAUUAUGAUGUGUAAGUUUGUUGCUCGUUUUAU [JR_STOV1_v2_Sub071] (Eterna round: R97, puzzle: Sensor, turn-off variant 1) | – | 50.2 nM | 56.5 nM | – | – | –
AGUAUGCGAGGAUAUACAUGAGGAUCACCCAUGUGAGAGAUAAAAGUGAGAAAGACAAGUAGAAGGCGCGUACA [JL Lego Mod 23] (Eterna round: R96, puzzle: Exclusion 3) | 41.9 nM | 413 nM | 81.1 nM | – | – | –
CACCGGUGAGACAACAUGAGGAUCACCCAUGUGAACAGCUCACAGGAUAUCCAGGCACGAAAGAAGGAGAAGGGUGGCUGACUC [Veuson] (Eterna round: R96, puzzle: Exclusion NG 3) | 13.6 nM | 17.2 nM | 17.4 nM | – | – | –
CUCCAGCAAGGAUAUACAUAGUGACGUCUGUUUAAUCUUAAACAUGAGGAUCACCCAUGUAGAAGGUGCGUCAC [Biqugeza] (Eterna round: R97, puzzle: Exclusion 2) | – | 19.4 nM | 17.1 nM | – | – | –
UAAACAAGCUUAAGAUCCUACAUGAGGAUCACCCAUGUGCUCGUCUUGUAACGUACUGUGACGAAAGUCACGGUACG [JL TOV1 3.09] (Eterna round: R97, puzzle: Sensor, turn-off variant 1) | – | 185 nM | 228 nM | – | – | –
AAUAAUAAGGAGGAUAUCCUAACCGAAAGGUUAGGAGAAGGCCUAACAUGAGGAUCACCCAUGUUCCUCAAUAA [Mat - Exclusion 6 - Eli Mod - D57] (puzzle: Exclusion 6) | – | – | – | 318 nM | 236 nM | 118 nM
CUUUUGUGAGGAUAUUAGUAGUAAAUAAAUAUAAUUACUACUGAGAAGGCACAUGAGGAUCACCCAUGUUCCUC [salish99_ex4_r3_058] (puzzle: Exclusion 4) | – | – | – | – | 35.5 nM | –

Sequence | apparent KD of MS2 coat protein [1] | apparent KD of MS2 coat protein (input ligand: FMN 200 uM) | apparent KD of MS2 coat protein (input ligand: none) | apparent KD of MS2 coat protein [2] | apparent KD of MS2 coat protein [3] | apparent KD of MS2 coat protein [4]
AAAGGCUAAGGAUAUGCACACAUAAACAUGAGGAUCACCCAUGUGUUCCCAGCAACCAUAGCAGAAGGUAGCGAAA [Rarebeve] (puzzle: Exclusion 5) | – | – | – | 76.5 nM | 70.1 nM | 68.7 nM
UAUUAUCAAGCAAGAUCCCACAUGAGGAUCACCCAUGUGCUCGUCUUAUUUCUGUCCUUAUUGUUCUCUCGUCUAAU [JR_STOV1_v2_Sub096] (Eterna round: R97, puzzle: Sensor, turn-off variant 1) | – | 41.8 nM | 39.9 nM | – | – | –
CCAGCGUAUGUGAGGAUAUGCUGGUCCUUGGAUCAGCAGAAGGCACAUGAGGAUCACCCAUGUGAGAGCGUUGG [JL bmx4 3.37] (puzzle: Brourd's mod of Exclusion 4) | – | – | – | – | 21.4 nM | –
GCCUUAUCCGUCAGGAUAUACAGCCGCUCCCUGUUGUAGAAGGGACAUGAGGAUCACCCAUGUACGUACCACCG [alecazam8] (Eterna round: R97, puzzle: Brourd's mod of Exclusion 4) | – | 28.1 nM | 29.2 nM | – | – | –
UCAACCAGAGGAUAUGCGCAUAGAUCAGACUUUGUUUCUUAACAUGAGGAUCACCCAUGUAGAAGGCUGUAACC [Ex2 #77] (Eterna round: R97, puzzle: Exclusion 2) | – | 20.3 nM | 19.8 nM | – | – | –
ACAUGAGGAUCACCCAUGUAAACAUAAUGGCUCAUGUAGAGUCAGGAUAUGCGUGGCUAACAAUCGCAGAAGGGACAAGACUGG [Deportation 29 - Jieux - Exclusion NG 3] (Eterna round: R96, puzzle: Exclusion NG 3) | 20.2 nM | 22.1 nM | 24.5 nM | – | – | –
CAGUACUGAGGAUAUACAUGAGGAUCACCCAUGUGUUCCUGCUAGGAAACUAGCAAGGGUAGAAGGCAGUACUG [Salish 065 m4] (Eterna round: R97, puzzle: Exclusion 3) | – | 132 nM | 16.4 nM | – | – | –
UAGAGAGAUAAGGAUAUCUAUUAAAUUGUGCGUAGAGAAGGUAUCACAUGAGGAUCACCCAUGUGGUCUAAUAA [Eternabot (L1) Solution 88] (Eterna round: R97, puzzle: Exclusion 6) | – | 29.7 nM | 24.1 nM | – | – | –
CUGGUGUGAGGAUAUCAGGACACGUAAGCGGGCGUGUCAAAUGAGAAGGCACAUGAGGAUCACCCAUGUGGGAC [Atbeceesxe] (puzzle: Exclusion 4) | – | – | – | – | 27.8 nM | –
UUGUUAUAUGUAGGAUAUGCAUAUUAUUAUUAUGCAGAAGGACAUGAGGAUCACCCAUGUGUAUUGUUAUUAUAUAUUAUAUAU [Title] (Eterna round: R96, puzzle: Exclusion NG 1) | 16.5 nM | – | – | – | – | –
UAGUGGGUACGAAGGAGUUGUAUGAGCGGAGGCUCAGUGACAUGAGGAUCACCCAUGUAGCUUUUUGCUCGUCUUAA [JR_SV3TOV2_Sub038] (puzzle: Sensor v3, turn-off variant 2) | – | – | – | 35.7 nM | 109 nM | 32.4 nM
AGGCGGAAAGUAAGGAUAUCUUGACCAAAGGGUUGAGAGAAGGUACAUGAGGAUCACCCAUGUGUUUACCGCCA [Shrinking Claw (Vienna2)] (Eterna round: R97, puzzle: Brourd's mod of Exclusion 4) | – | 12.4 nM | 12.9 nM | – | – | –
GCAUGUCAGUAGGAUAUGCAGCACUUGAUACCUGCAGAAGGACUGACAUGAGGAUCACCCAUGUCUCGGGUGCU [EX6 A.10] (Eterna round: R97, puzzle: Exclusion 6) | – | 16.8 nM | 149 nM | – | – | –
UCGUUCCGUGUAGGAUAUUGGCCUUCCUCGGGCCGAGAAGGACAUGAGGAUCACCCAUGUAUGCUAUUAUCGCGCGUGGCGCAC [Design 96] (Eterna round: R96, puzzle: Exclusion NG 1) | 24.5 nM | 141 nM | 33 nM | – | – | –
UACAUGAGGAUCACCCAUGUUUUGUCGUGUAUGGUAUUUAUCUAGGAUAUCAAUUUGUUUAAUUAUGAGAAGGAGAAUAUUAAU [JMF's solution 70] (Eterna round: R96, puzzle: Exclusion NG 3) | 25.8 nM | 34.3 nM | 35.6 nM | – | – | –
AUAUAGAUAGUCAGGAUAUACUAGUGAUAACAGUAGUAGAAGGGACAUGAGGAUCACCCAUGUAGAUACUGCAC [Brourd's EX4 #2] (Eterna round: R97, puzzle: Brourd's mod of Exclusion 4) | – | 22.2 nM | 21.2 nM | – | – | –
UAAAACUGAGGAUAUACAUGAGGAUCACCCAUGUCAAUUGACAGCGGCGUGGCAAAAGGUAGAAGGCAGGCGGU [Lerete] (puzzle: Exclusion 3) | – | – | – | 43 nM | 176 nM | 161 nM

From the supplement of paper PMC9170038
